Source: article PMC6716341 (ACS Central Science, 2019)

Assays:
[1] = In vitro aging: isomerization of Asp1 and Asp7; assay type: physicochemical; conditions: from the rates in Figure 4
NSC-hTERT = conditions: incubated with NSC-hTERT cells; cited from earlier work
SH-SY5Y = conditions: incubated with SH-SY5Y cells; cited from earlier work
SK-N-SH = conditions: incubated with SK-N-SH cells; cited from earlier work

Substance | degree of isomerization within a 30 h time frame [1] | toxicity relative to canonical form (NSC-hTERT) | toxicity relative to canonical form (SH-SY5Y) | toxicity relative to canonical form (SK-N-SH)
Aβ: amyloid beta in general; isomerization estimated from the measured rates | ~0.2% |  |  | 
isomerized Aβ1–42: isomerized Aβ1–42 studied by Makarov and co-workers |  | more toxic than the canonical form | more toxic than the canonical form | more toxic than the canonical form
